EP4703386A1 (Shanghai Sinobay Biotechnology Co., Ltd., dated 2026)

Columns and labels:
[1] = target: T1, CD276 protein on tumor target cells (NCI-H292, SK-OV-3) (human, UniProt Q5ZPR3 29-534); experiment: flow cytometry on NCI-H292 cells, IgG-Fc-PE second antibody
T1 construct: whole, on cells; for SK-OV-3 it is implied by the use of CD276-targeted BiTE and CAR; also called B7-H3; CD276-expressing target cells
T1 sequence (looked up): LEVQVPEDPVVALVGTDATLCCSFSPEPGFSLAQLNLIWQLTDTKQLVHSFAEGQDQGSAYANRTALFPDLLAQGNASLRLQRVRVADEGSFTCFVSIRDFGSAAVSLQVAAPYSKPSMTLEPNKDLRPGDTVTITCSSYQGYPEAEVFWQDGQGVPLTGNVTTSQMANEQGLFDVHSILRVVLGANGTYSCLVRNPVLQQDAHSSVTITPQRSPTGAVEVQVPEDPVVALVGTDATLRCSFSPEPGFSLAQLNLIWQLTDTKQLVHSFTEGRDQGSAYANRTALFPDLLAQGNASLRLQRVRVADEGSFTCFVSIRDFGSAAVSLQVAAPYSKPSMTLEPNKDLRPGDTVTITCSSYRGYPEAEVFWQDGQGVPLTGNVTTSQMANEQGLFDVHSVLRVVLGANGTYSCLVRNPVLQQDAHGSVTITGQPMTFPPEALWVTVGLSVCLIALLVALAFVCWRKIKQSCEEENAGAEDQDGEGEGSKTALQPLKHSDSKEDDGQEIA

[2] = target: T1, CD276 protein on tumor target cells …; experiment: flow cytometry on NCI-H292 cell line (Fig. 3)
[3] = target: T1, CD276 protein on tumor target cells …; experiment: cell-based or functional assay

B1: Hu012-21 (antibody, IgG1, V domains shown)
VH: EVQLVQSGGGVVQPGRSLRLSCAASGFTFSSYGMHWVRQAPGKGLEWVAVISYDGSNKYYADSVKGRFTISRDNSKDTLYLQMNSLRAEDTAVYYCAKDKLMGWHNYGMDVWGQGTTVTVSS
VL: AIQLTQSPSSLSASVGDRVTITCRASQSINSYLNWYQQKPGKAPKVLIYAASNLQSGVPSRFSGSGSGTDFTLTISSLQPEDFATYYCQQSYSTPPTFGQGTKLEIK
notes: Full-length IgG1 (AbVec-hIgG1, AbVec-hIgKappa); also called candidate antibody Hu012-21
- binding result [1]: binds

B2: Hu012-24 (antibody, IgG1, V domains shown)
VH: EVQLVQSGGGLVKPGGSLRLSCAASGFTFSRHSMNWVRQAPGKGLEWVSSISSNDEHIIYADSVKGRFTISRDNSKNTLYLEMNSLRAEDTAVYYCARASRYGGSYYGLDYWGQGTLVTVSS
VL: QTVVTQEPSFSVSPGGTVTLTCGLTSGSVSTTYFPSWYQQTPGQPPRRLIYNTNTRSSGVPDRFSGSIVGIKAALTITGAQAEDESDYYCALYLGSGIVEFGGGTKLTVL
notes: Full-length IgG1 (AbVec-hIgG1, AbVec-hIgKappa); also called candidate antibody Hu012-24
- positive rate [1]: ~100%

B3: Hu012-3 (antibody, IgG1, V domains shown)
VH: QVQLVQSGAEVKKPGESLRISCKGSGYSFTSYWISWVRQMPGKGLEWMGRIDPSDSYTNYSPSFQGHVTISADKSISTAYLQWSSLKASDTAMYYCARHDASGGGPSDYWGQGTLVTVSS
VL: QSVLTQPPSVSAAPGQRVTISCSGSSSNIGDHYVSWYQQLPGTAPKLLIYDNNKRPSGIPDRFSGSKSGTSATLGITGLQTGDEADYYCGTWDSSLSVPNWVFGGGTKVTVL
notes: Full-length IgG1 (AbVec-hIgG1, AbVec-hIgKappa); also called candidate antibody Hu012-3
- binding result [2]: binds

B4: Hu012-13 (antibody, IgG1, V domains shown)
VH: EVQLVQSGAEVKKPGASVKVSCKASGYTFTSYGISWVRQAPGQGLEWMGWISAYNGNTNYAQKLQGRVTMTTDTSTSTAYMELRSLRSDDTAVYYCARAPYYGGYDYWGQGTMVTVSS
VL: ETTLTQSPGTLSLSPGDRATLSCRASQSVRSSYLAWYQQKPGQAPRLVIYGASNRAAGIPDRFSGSGSGTDFTLTISGLEPEDFAVYYCQEYGYSLPNTFGQGTKLEIK
notes: Full-length IgG1 (AbVec-hIgG1, AbVec-hIgKappa); also called candidate antibody Hu012-13
- binding result [1]: binds

B5: CD276(Hu012-8)BiTE (bispecific antibody)
chain: NIQMTQSPSSLSASVGDRVTITCRASQTISRYLNWYQQKPGKAPKLLIYAASSLQSGVPSRFSGSGSGADFTLTINTLQPEDFATYYCQQSYRTPQTFGQGTKVEIKGGGGSGGGGSGGGGSQVQLVQSGAEVKKPGASVRVSCKGSGYTFTDHHMYWVRQAPGQGLEWMGRINPNTGVTNYAQKFQGRVSMTRDTSINTVYLELRSLKSDDAAVYYCGRDQVVMVPGVPLDLGMDVWGQGTTVTVSSGGGGSQVQLVQSGAEVKKPGASVKVSCKASGYTFTRYTMHWVRQAPGQGLEWMGYINPSRGYTNYNQKFKDRVTITADKSTSTAYMELSSLRSEDTAVYYCARYYDDHYCLDYWGQGTTVTVSSGGGGSGGGGSGGGGSGSEIVLTQSPATLSLSPGERATLSCSASSSVSYMNWYQQKPGKAPKRLIYDTSKLASGVPSRFSGSGSGTDFTLTINSLEAEDAATYYCQQWSSNPFTFGQGTKVEIKR
- fold increase in killing the NCI-H292 tumor cell line against control BiTE [3]: 1.2 fold
- fold increase in killing the SK-OV3 tumor cell line against control BiTE [3]: 2 fold

B6: CD276(Hu012-7)BiTE (bispecific antibody)
chain: DIVMTQSPSSLSTSIGDRVTITCRASQGISNFLAWFQQKPGKAPKSLIYAASRLQSGVPSKFSGSGSGTNFTLTISSLQPEDFATYYCQQYDSYPLTFGGGTKVEIKGGGGSGGGGSGGGGSEVQLVESGGGVVQPGRSLTLSCAASGFTFNGYSMHWVRQAPGKGLEWVAVMSSDGGNKYYADSVKGRFTISRDNSKNTLYLQMNGLRPEDTAVYYCARAVSSGWSLPFDFWGHGTLVTVSSGGGGSQVQLVQSGAEVKKPGASVKVSCKASGYTFTRYTMHWVRQAPGQGLEWMGYINPSRGYTNYNQKFKDRVTITADKSTSTAYMELSSLRSEDTAVYYCARYYDDHYCLDYWGQGTTVTVSSGGGGSGGGGSGGGGSGSEIVLTQSPATLSLSPGERATLSCSASSSVSYMNWYQQKPGKAPKRLIYDTSKLASGVPSRFSGSGSGTDFTLTINSLEAEDAATYYCQQWSSNPFTFGQGTKVEIKR
- fold increase in killing the NCI-H292 tumor cell line against control BiTE [3]: 1.2 fold
- fold increase in killing the SK-OV3 tumor cell line against control BiTE [3]: 2.1 fold

B7: Hu012-1 (antibody, V domains shown)
VH: QVTLKESGGGLVQPGGSLRLSCAASGSIFNMYAMGWYRQAPGKQRELVASITSGGSTHYADSVKGRFTISRDNAKNTMYLQMNSLKPEDTAVYYCRQNDGMDYWGKGTLVTVSS
VL: QAGLTQPPSVSVAPGKTARITCGGNNIGSKSVHWYQQKPGQAPVVVIYDDSDRPSGIPERFSGSNSGNTATLTISRVEAGDEADFYCQVWDSSSDRYVFGTGTKLTVL
notes: Full-length IgG1 (AbVec-hIgG1, GenBank FJ475055.1; AbVec-hIgKappa, GenBank FJ475056.1); also called candidate antibody Hu012-1
- positive rate [1]: ~100%

B8: Hu012-6 (antibody, IgG1, V domains shown)
VH: QMQLVQSGGGLVQPGGSLRLSCAASGFTFSSYWMSWVRQAPGKGLEWVANIKQDGSEKYYVDSVKGRFTISRDNAKNSLYLQMNSLRAEDTAVYYCARSPHYDFWRRDYYYGMDVWGQGTLVTVSS
VL: QSVLTQPPSVSATPGQTVTISCSGSTSNIATNYVSWYQHLPGSAPKLLIYDNNKRPSGIPDRFSGSKSGTSATLDIIGLQTGDEADYYCGVWDPSLTTYVFGTGTQLTAL
notes: Full-length IgG1 (AbVec-hIgG1, AbVec-hIgKappa); also called candidate antibody Hu012-6
- binding result [2]: binds

B9: Hu012-27 (antibody, IgG1, V domains shown)
VH: QVQLVQSGGGVVQPGRSLRLSCAASGFTFSSYAMHWVRQAPGKGLEWVAVISYDGSNKYYADSVKGRFTISRDNSKNTLYLQMNSLRAEDTTVYYCARDRRYYSSMDVWGQGTTVTVSS
VL: QTVVTQEPSFSVSPGGTITLTCGLSSGSVSTSYYPSWYQQTPGQAPRTLIYNTNTRSSGVPDRFSGSILGNKAALTITGAQADDESHYYCALHMDSGSWVFGGGTQLTVL
notes: Full-length IgG1 (AbVec-hIgG1, AbVec-hIgKappa); also called candidate antibody Hu012-27
- binding result [1]: binds

B10: Hu012-8 (antibody, IgG1, V domains shown)
VH: QVQLVQSGAEVKKPGASVRVSCKGSGYTFTDHHMYWVRQAPGQGLEWMGRINPNTGVTNYAQKFQGRVSMTRDTSINTVYLELRSLKSDDAAVYYCGRDQVVMVPGVPLDLGMDVWGQGTTVTVSS
VL: NIQMTQSPSSLSASVGDRVTITCRASQTISRYLNWYQQKPGKAPKLLIYAASSLQSGVPSRFSGSGSGADFTLTINTLQPEDFATYYCQQSYRTPQTFGQGTKVEIK
notes: Full-length IgG1; also called candidate antibody Hu012-8
- positive rate [1]: ~100%

B11: Hu012-14 (antibody, IgG1, V domains shown)
VH: EVQLVETGGGLVQPGGSLRLSCAASGFTFSSYGMTWVRQPPGKGLEWVSHISGSGTNTYYADSVKGRFTISRDNSKNTLYLQMNNLGAEDTAVYYCAKLKWGHSGYGDYWGQGTTVTVSS
VL: EIVLTQSPATLSLSPGERATLSCRASQTISRYLAWYQQKPGQAPRLLIYDASNRATGIPARFSGSGSDTDFTLTISSIEPEDFAVYYCQERSNWPQVTFGPGTKLEIK
notes: Full-length IgG1 (AbVec-hIgG1, AbVec-hIgKappa); also called candidate antibody Hu012-14
- binding result [1]: binds

B12: Hu012-29 (antibody, V domains shown)
VH: EVQLVESGGGLVQPGGSLRLSCAASRNIFRFYTMGWYRQAPEKQRDLVARITSDGTTNYADSVKGRFTISRDNAKNTVYLQMNSLKPEDTAVYYCNTDLPLNTYWAQGTLVTVSS
VL: DIQMTQSPSSLSASVGDRVTITCRASQSISSSLNWYQHKPGKAPKLLIYSASILQSGVPSRFSGSGSGTDYTLTISSLQPEDFATYSCQQSYTTPYTFGLGTKLEIK
notes: Full-length IgG1 (AbVec-hIgG1, AbVec-hIgKappa); also called candidate antibody Hu012-29
- binding result [1]: binds

B13: Hu012-7-4-1BB-CD3ζ chimeric antigen receptor on lentivirus-transduced T cells (other)
chain: GDYKDDDDKGSEVQLVESGGGVVQPGRSLTLSCAASGFTFNGYSMHWVRQAPGKGLEWVAVMSSDGGNKYYADSVKGRFTISRDNSKNTLYLQMNGLRPEDTAVYYCARAVSSGWSLPFDFWGHGTLVTVSSGGGGSGGGGSGGGGSDIVMTQSPSSLSTSIGDRVTITCRASQGISNFLAWFQQKPGKAPKSLIYAASRLQSGVPSKFSGSGSGTNFTLTISSLQPEDFATYYCQQYDSYPLTFGGGTKVEIKTRTTTPAPRPPTPAPTIASQPLSLRPEACRPAAGGAVHTRGLDFACDIYIWAPLAGTCGVLLLSLVITLYCKRGRKKLLYIFKQPFMRPVQTTQEEDGCSCRFPEEEEGGCELRVKFSRSADAPAYKQGQNQLYNELNLGRREEYDVLDKRRGRDPEMGGKPRRKNPQEGLYNELQKDKMAEAYSEIGMKGERRRGKGHDGLYQGLSTATKDTYDALHMQALPPR
- killing efficiency on SKOV3 cells, effector to target ratio 1:1 [3]: ~30%
- killing efficiency on SKOV3 cells, effector to target ratio 2:1 [3]: > 60%
